This note sets out measurements from PMC2975869.

The target of test [1] is HA-tagged PTH1R (parathyroid hormone type 1 receptor), wild type (UniProt Q03431). As to the kind of experiment: radioligand binding.
The target of test [2] is endogenous PTH1R of A10 cells (rat (endogenous in A10)) (UniProt P25961). As to the kind of experiment: radioligand binding.
Test [3] shares this target.

Chain of UniProt P25961 (P25961 27-591): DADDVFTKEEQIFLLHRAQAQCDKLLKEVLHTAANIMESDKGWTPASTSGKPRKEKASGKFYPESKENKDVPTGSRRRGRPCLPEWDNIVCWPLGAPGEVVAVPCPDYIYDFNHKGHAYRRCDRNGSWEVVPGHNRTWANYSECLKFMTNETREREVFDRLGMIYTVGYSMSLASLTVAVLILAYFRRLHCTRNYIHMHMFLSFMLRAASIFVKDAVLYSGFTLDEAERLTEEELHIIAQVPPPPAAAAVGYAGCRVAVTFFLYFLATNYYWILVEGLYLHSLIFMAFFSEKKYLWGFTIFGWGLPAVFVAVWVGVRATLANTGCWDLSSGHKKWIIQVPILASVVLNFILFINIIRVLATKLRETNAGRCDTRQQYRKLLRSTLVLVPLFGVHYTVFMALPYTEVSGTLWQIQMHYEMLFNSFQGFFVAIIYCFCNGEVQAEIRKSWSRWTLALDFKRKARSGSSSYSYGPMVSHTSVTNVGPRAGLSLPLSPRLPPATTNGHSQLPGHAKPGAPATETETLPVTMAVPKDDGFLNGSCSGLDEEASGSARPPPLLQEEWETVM

For the substance [125I]-PTH(1-34)NH2 (peptide), in test [1], the Total Binding (TB), cells co-transfected with EBP50 was 1980 and the Total Binding (TB), cells co-transfected with pcDNA3 stood at 1290. In test [2], this substance gave a Total Binding (TB), cells transfected with EBP50 of 2470 and a Total Binding (TB), cells transfected with pcDNA3 of 1550.

Consider PTHrP (1-36)-NH2 (peptide), for which the cAMP production in A10 cells in response to PTHrP(1-36), 30 min at 37 °C in test [3] is 3 fold.
